Target: T1, cynomolgus monkey IL-6 (cynomolgus monkey, UniProt P79341 28-212, limits assumed)
T1 sequence (looked up): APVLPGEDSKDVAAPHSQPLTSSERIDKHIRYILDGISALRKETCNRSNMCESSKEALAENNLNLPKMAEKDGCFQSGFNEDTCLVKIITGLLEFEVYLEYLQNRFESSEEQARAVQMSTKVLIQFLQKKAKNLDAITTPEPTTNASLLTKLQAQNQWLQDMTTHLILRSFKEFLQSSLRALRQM
Experiment: tissue cross-reactivity study, cynomolgus monkey tissues

- binding result: binds
B1: clazakizumab (antibody, human IgG1, kappa, N297A, V domains shown)
VH: EVQLVESGGGLVQPGGSLRLSCAASGFSLSNYYVTWVRQAPGKGLEWVGIIYGSDETAYATSAIGRFTISRDNSKNTLYLQMNSLRAEDTAVYYCARDDSSDWDAKFNLWGQGTLVTVSS
VL: AIQMTQSPSSLSASVGDRVTITCQASQSINNELSWYQQKPGKAPKLLIYRASTLASGVPSRFSGSGSGTDFTLTISSLQPDDFATYYCQQGYSLRNIDNAFGGGTKVEIKR
notes: Humanized IgG1 monoclonal antibody; also called anti-IL-6 mAb clazakizumab

Source: patent publication US20230174640A1 (VITAERIS, published 2023)
